Results from publication PMC5549741, “Engineering double-stranded RNA binding activity into the Drosha double-stranded RNA binding domain results in a loss of microRNA processing function”.

B1: pri-mir-16-1 (structured_RNA)
RNA: GGGUGAUAGCAAUGUCAGCAGUGCCUUAGCAGCACGUAAAUAUUGGCGUUAAGAUUCUAAAAUUAUCUCCAGUAUUAACUGUGCUGCUGAAGUAAGGUUGACCAUACUCUAC
B2: ds44 (dsRNA)
RNA 1: GGUCAGCAGUGCCUUAGCAGCACGUAAAUAUUGGCGUUAAGACC
RNA 2: GGUCUUAACGCCAAUAUUUACGUGCUGCUAAGGCACUGCUGACC
B3: ds33 (dsRNA)
RNA 1: GGUCAGCAGUGCCUUAGCAGCACGUAAAUAUGG
RNA 2: CCAUAUUUACGUGCUGCUAAGGCACUGCUGACC
B4: ds22 (dsRNA)
RNA 1: GUCAGCAGUGCCUUAGCAGCAC
RNA 2: GUGCUGCUAAGGCACUGCUGAC

Biological target: T1, Drosha-Quad dsRBD (human, UniProt Q9NRR4 1259-1337, K1262I;I1317K;Q1318K;E1321K)
T1 sequence: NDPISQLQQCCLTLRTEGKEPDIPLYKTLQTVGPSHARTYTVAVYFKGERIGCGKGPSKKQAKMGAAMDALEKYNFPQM
Test: EMSA; 50 mM sodium cacodylate pH 6.0, 50 mM KCl, 5% glycerol, 1 mM DTT, 0.1 mg/mL BSA, 0.1 mg/mL herring sperm DNA, 30 min at room temperature; 10% native gel at 4 C; Hill fit
Settings: protein: recombinant, tags: pET-47b(+) vector

[1] = label: 5'-32P top strand, blunt

Binder | Kd (label: 32P (5' end implied), hairpin, stem region contains 39 bp) [µM] | Kd [1] [µM]
B1 | 2.8 ± 0.1 | –
B2 | – | 6.5 ± 0.6
B3 | – | 7.8 ± 0.2
B4 | – | 13.4 ± 0.4
